The supplement of paper PMC9112550, “Optimization of the antimicrobial peptide Bac7 by deep mutational scanning” (BMC Biology, 2022)

Tested on: Escherichia coli TOP10
Test: shrunken log2 fold change of peptide-encoding DNA abundance (4.5 h post-induction vs induction); higher = less antimicrobial activity (less host growth inhibition)
Settings: time post-induction: 4.5 h; library: site-saturation at positions 5, 18, 19, 20
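Also: peptides expressed intracellularly from a pBAD plasmid library in pooled LB shake-flask culture, induced with 0.3% L-arabinose, DNA abundance read by NGS, three biological replicates, DESeq2 with apeglm shrinkage.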

Sequence | shrunken log2 fold change
RRIRLRPPRLPRPRPRPGWPPRP | 0.406
RRIRLRPPRLPRPRPRPGYTPRP | -0.349
RRIRLRPPRLPRPRPRPGYYPRP | -0.166
RRIRLRPPRLPRPRPRPHAFPRP | -0.208
RRIRLRPPRLPRPRPRPHAHPRP | -0.506
RRIRLRPPRLPRPRPRPHEGPRP | -0.00992
RRIRLRPPRLPRPRPRPHGRPRP | 0.114
RRIRLRPPRLPRPRPRPHHGPRP | -0.0757
RRIRLRPPRLPRPRPRPHMNPRP | -0.686
RRIRLRPPRLPRPRPRPHPRPRP | 0.276
RRIRLRPPRLPRPRPRPHQRPRP | -0.259
RRIRLRPPRLPRPRPRPHRAPRP | -0.0697
RRIRLRPPRLPRPRPRPHRMPRP | -0.0961
RRIRLRPPRLPRPRPRPHRNPRP | -0.319
RRIRLRPPRLPRPRPRPHSDPRP | -0.175
RRIRLRPPRLPRPRPRPHTEPRP | -0.167
RRIRLRPPRLPRPRPRPHTFPRP | -0.0496
RRIRLRPPRLPRPRPRPHVCPRP | -0.247
RRIRLRPPRLPRPRPRPIAKPRP | -0.305
RRIRLRPPRLPRPRPRPIAVPRP | -0.16
RRIRLRPPRLPRPRPRPIFAPRP | 0.331
RRIRLRPPRLPRPRPRPIFSPRP | -0.182
RRIRLRPPRLPRPRPRPIFVPRP | -0.0836
RRIRLRPPRLPRPRPRPIGCPRP | -0.0407
RRIRLRPPRLPRPRPRPIHDPRP | -0.302

Sequence | shrunken log2 fold change
RRIRLRPPRLPRPRPRPIHIPRP | -0.374
RRIRLRPPRLPRPRPRPIHMPRP | -0.0933
RRIRLRPPRLPRPRPRPIIQPRP | -0.439
RRIRLRPPRLPRPRPRPIKDPRP | -0.374
RRIRLRPPRLPRPRPRPIKRPRP | -0.466
RRIRLRPPRLPRPRPRPIKVPRP | -0.135
RRIRLRPPRLPRPRPRPILNPRP | -0.389
RRIRLRPPRLPRPRPRPIMCPRP | 0.02
RRIRLRPPRLPRPRPRPIRWPRP | -0.241
RRIRLRPPRLPRPRPRPISAPRP | -0.053
RRIRLRPPRLPRPRPRPISFPRP | -0.158
RRIRLRPPRLPRPRPRPISIPRP | 0.111
RRIRLRPPRLPRPRPRPIVLPRP | -0.345
RRIRLRPPRLPRPRPRPIVMPRP | -0.618
RRIRLRPPRLPRPRPRPIVPPRP | 0.0358
RRIRLRPPRLPRPRPRPIYEPRP | -0.291
RRIRLRPPRLPRPRPRPKAQPRP | -0.00354
RRIRLRPPRLPRPRPRPKDHPRP | -0.123
RRIRLRPPRLPRPRPRPKFQPRP | -0.113
RRIRLRPPRLPRPRPRPKHDPRP | -0.0476
RRIRLRPPRLPRPRPRPKIPPRP | -0.292
RRIRLRPPRLPRPRPRPKIQPRP | -0.131
RRIRLRPPRLPRPRPRPKKAPRP | -0.0389
RRIRLRPPRLPRPRPRPKKCPRP | -0.198
RRIRLRPPRLPRPRPRPKKGPRP | -0.166

Sequence | shrunken log2 fold change
RRIRLRPPRLPRPRPRPKKSPRP | 0.018
RRIRLRPPRLPRPRPRPKLEPRP | -0.354
RRIRLRPPRLPRPRPRPKLHPRP | 0.108
RRIRLRPPRLPRPRPRPKLWPRP | 0.296
RRIRLRPPRLPRPRPRPKMIPRP | -0.378
RRIRLRPPRLPRPRPRPKPRPRP | 0.729
RRIRLRPPRLPRPRPRPKQIPRP | 0.0389
RRIRLRPPRLPRPRPRPKQTPRP | 0.0369
RRIRLRPPRLPRPRPRPKRAPRP | 0.203
RRIRLRPPRLPRPRPRPKRSPRP | 0.558
RRIRLRPPRLPRPRPRPKVAPRP | -0.0483
RRIRLRPPRLPRPRPRPKVCPRP | 0.0264
RRIRLRPPRLPRPRPRPKYGPRP | -0.364
RRIRLRPPRLPRPRPRPLAGPRP | 0.0705
RRIRLRPPRLPRPRPRPLAHPRP | -0.174
RRIRLRPPRLPRPRPRPLCGPRP | 0.161
RRIRLRPPRLPRPRPRPLCMPRP | -0.467
RRIRLRPPRLPRPRPRPLCWPRP | 0.487
RRIRLRPPRLPRPRPRPLDVPRP | -0.205
RRIRLRPPRLPRPRPRPLEGPRP | 0.765
RRIRLRPPRLPRPRPRPLEVPRP | -0.0281
RRIRLRPPRLPRPRPRPLFEPRP | 1.33
RRIRLRPPRLPRPRPRPLFGPRP | -0.0652
RRIRLRPPRLPRPRPRPLGEPRP | 0.013
RRIRLRPPRLPRPRPRPLGSPRP | -0.00618

Sequence | shrunken log2 fold change
RRIRLRPPRLPRPRPRPLHKPRP | 0.223
RRIRLRPPRLPRPRPRPLHNPRP | -0.0106
RRIRLRPPRLPRPRPRPLHPPRP | -0.0561
RRIRLRPPRLPRPRPRPLIPPRP | -0.41
RRIRLRPPRLPRPRPRPLKAPRP | -0.153
RRIRLRPPRLPRPRPRPLLCPRP | -0.0707
RRIRLRPPRLPRPRPRPLLDPRP | 0.3
RRIRLRPPRLPRPRPRPLLFPRP | -0.242
RRIRLRPPRLPRPRPRPLMKPRP | 0.0215
RRIRLRPPRLPRPRPRPLMRPRP | 0.807
RRIRLRPPRLPRPRPRPLNDPRP | -0.0903
RRIRLRPPRLPRPRPRPLNSPRP | -0.389
RRIRLRPPRLPRPRPRPLNTPRP | -0.454
RRIRLRPPRLPRPRPRPLPIPRP | -0.129
RRIRLRPPRLPRPRPRPLPSPRP | 3.98
RRIRLRPPRLPRPRPRPLQIPRP | -0.092
RRIRLRPPRLPRPRPRPLQQPRP | 0.0442
RRIRLRPPRLPRPRPRPLQRPRP | 0.0926
RRIRLRPPRLPRPRPRPLRPPRP | 0.525
RRIRLRPPRLPRPRPRPLRSPRP | 0.474
RRIRLRPPRLPRPRPRPLSYPRP | 0.128
RRIRLRPPRLPRPRPRPLTHPRP | -0.0644
RRIRLRPPRLPRPRPRPLVFPRP | -0.186
RRIRLRPPRLPRPRPRPLVYPRP | -0.335
RRIRLRPPRLPRPRPRPLWFPRP | -0.543

Sequence | shrunken log2 fold change
RRIRLRPPRLPRPRPRPLWIPRP | -0.399
RRIRLRPPRLPRPRPRPLYCPRP | -0.366
RRIRLRPPRLPRPRPRPLYKPRP | -0.328
RRIRLRPPRLPRPRPRPLYPPRP | -0.12
RRIRLRPPRLPRPRPRPMAKPRP | 0.109
RRIRLRPPRLPRPRPRPMALPRP | -0.0125
RRIRLRPPRLPRPRPRPMDWPRP | -0.0759
RRIRLRPPRLPRPRPRPMEKPRP | 0.0493
RRIRLRPPRLPRPRPRPMFWPRP | 0.145
RRIRLRPPRLPRPRPRPMIEPRP | -0.00289
RRIRLRPPRLPRPRPRPMIHPRP | -0.186
RRIRLRPPRLPRPRPRPMIYPRP | -0.0701
RRIRLRPPRLPRPRPRPMLAPRP | 0.369
RRIRLRPPRLPRPRPRPMLHPRP | -0.34
RRIRLRPPRLPRPRPRPMLIPRP | -0.0317
RRIRLRPPRLPRPRPRPMLPPRP | -0.164
RRIRLRPPRLPRPRPRPMMFPRP | -0.269
RRIRLRPPRLPRPRPRPMPEPRP | 0.221
RRIRLRPPRLPRPRPRPMQSPRP | 0.0626
RRIRLRPPRLPRPRPRPMRCPRP | 0.0565
RRIRLRPPRLPRPRPRPMRRPRP | 0.412
RRIRLRPPRLPRPRPRPMRVPRP | 0.115
RRIRLRPPRLPRPRPRPMSDPRP | 0.0343
RRIRLRPPRLPRPRPRPMSLPRP | -0.0224
RRIRLRPPRLPRPRPRPMTCPRP | -0.252

Sequence | shrunken log2 fold change
RRIRLRPPRLPRPRPRPMVDPRP | -0.00377
RRIRLRPPRLPRPRPRPMVHPRP | 0.012
RRIRLRPPRLPRPRPRPMWAPRP | 0.0661
RRIRLRPPRLPRPRPRPMWRPRP | 0.194
RRIRLRPPRLPRPRPRPMWVPRP | -0.314
RRIRLRPPRLPRPRPRPMYIPRP | -0.172
RRIRLRPPRLPRPRPRPMYRPRP | 0.0136
RRIRLRPPRLPRPRPRPNEIPRP | 0.0349
RRIRLRPPRLPRPRPRPNGIPRP | -0.00731
RRIRLRPPRLPRPRPRPNGVPRP | 0.0191
RRIRLRPPRLPRPRPRPNHHPRP | -0.0905
RRIRLRPPRLPRPRPRPNHKPRP | -0.335
RRIRLRPPRLPRPRPRPNIRPRP | -0.585
RRIRLRPPRLPRPRPRPNIVPRP | -0.00437
RRIRLRPPRLPRPRPRPNKEPRP | 0.0626
RRIRLRPPRLPRPRPRPNKMPRP | -0.158
RRIRLRPPRLPRPRPRPNKTPRP | 0.0829
RRIRLRPPRLPRPRPRPNKVPRP | -0.21
RRIRLRPPRLPRPRPRPNLRPRP | -0.0377
RRIRLRPPRLPRPRPRPNMRPRP | 0.0295
RRIRLRPPRLPRPRPRPNQMPRP | -0.437
RRIRLRPPRLPRPRPRPNQSPRP | -0.0737
RRIRLRPPRLPRPRPRPNRIPRP | -0.0157
RRIRLRPPRLPRPRPRPNSEPRP | -0.0888
RRIRLRPPRLPRPRPRPNTLPRP | -0.136
